Test results reported in the supplement of paper PMC10567573.
± gives the standard deviation.

Experiment: protein stability index of a GFP-peptide fusion (GPS, HEK-293T) (PSI 1-6); higher = more stable
Conditions: c terminus: a fixed tail appended
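Note: 24-mer peptide tiles fused after GFP, lentivirally expressed, FACS-sorted into six equal bins by GFP/DsRed ratio, decoded by Illumina sequencing, PSI is the read-weighted mean bin number.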

Row | Sequence | protein stability index (treatment: DMSO) | protein stability index (treatment: MLN4924 1 uM, 8 h)
1 | AAAAAHSTPVRREVTDKEQEFAAR [EPB41L3] | 5.28 ± 0.47 | 5.18 ± 0.56
2 | AAIFSLFFVPLSYLLMVTVILLPY [TMEM175] | 2.91 ± 0.11 | 3.01 ± 0.53
3 | AALEAAGEGLNVIQQTTRYFSTPQ [NANOGP8] | 3.3 ± 0.16 | 3.31 ± 0.25
4 | AARKKYNLLQDSSTSDSDLTCDSS [C18orf25] | 4.96 ± 0.21 | 4.89 ± 0.23
5 | AAVFKETFKSLSHIDPDVLYPSLN [ALG2] | 2.72 ± 0.17 | 2.71 ± 0.22
6 | ACGVAMELYVFGGVRSREDAQGSE [GAN] | 2.22 ± 0.25 | 2.35 ± 0.096
7 | ACSEDSLFLRCSLRHKDEEEEDDD [DRICH1] | 5.32 ± 0.27 | 5.24 ± 0.16
8 | ACVVQQKDARQWFAELSVDMEKIL [CCNC] | 2.51 ± 0.26 | 2.42 ± 0.17
9 | ADDLVLTLSNPQMSLEGTEKASWL [ELF3] | 3.62 ± 0.29 | 3.85 ± 0.26
10 | ADHGEPIGRGTKVILHLKEDQTEY [HSP90AB1] | 4.76 ± 0.2 | 4.89 ± 0.29
11 | ADPDEMRMQALLIRERILGPSHPD [FEM1C] | 3.94 ± 0.33 | 3.94 ± 0.13
12 | ADPVLDLPLPPPPPEPLSQVSMWD [APBB1IP] | 3.46 ± 0.68 | 3.94 ± 0.62
13 | ADSTSFDVQLGDIILTATDGLFDN [PPTC7] | 3.58 ± 0.22 | 3.68 ± 0.26
14 | AEAKRDAGIREAKAKQEKVSAQYL [FLOT1] | 4.88 ± 0.32 | 5.094 ± 0.024
15 | AEKKKPKTQIVCKHFLEAIENNKY [ZC3H15] | 3.51 ± 0.41 | 3.63 ± 0.25
16 | AFAPDFKELDENVEYEERESEFDI [RBBP5] | 5.38 ± 0.15 | 5.16 ± 0.41
17 | AFASFTSGVVRIWDLRDQSVVRDL [TLE6] | 2.36 ± 0.47 | 2.21 ± 0.35
18 | AFQHTPTSITLTASRVSKVNDKRR [KMT2E] | 3.74 ± 0.27 | 4.11 ± 0.47
19 | AFQITGVWDASRAPRGTPDPGLGE [PLEKHN1] | 3.85 ± 0.31 | 3.78 ± 0.21
20 | AFRWGAHLVQHQRIHSGEKPYECN [ZNF232] | 2.79 ± 0.25 | 2.87 ± 0.19
21 | AFSHKSMRDRHVNMHLNLRPFDCP [ZBTB22] | 2.4 ± 0.15 | 2.47 ± 0.19
22 | AFTEYVHAYFRGHSPSCLARVTGE [FCHO1] | 2.1 ± 0.28 | 2.22 ± 0.25
23 | AGGGGGGAGAGAPGGGRLLLSTSL [INTS3] | 3.19 ± 0.12 | 2.94 ± 0.24

Row | Sequence | protein stability index (treatment: DMSO) | protein stability index (treatment: MLN4924 1 uM, 8 h)
24 | AGLENTVAETECRYALQLQQIQGL [KRT13] | 3.12 ± 0.24 | 2.91 ± 0.19
25 | AGTPGYLSPEVLRKEAYGKPVDIW [CAMK2B] | 3.29 ± 0.15 | 3.31 ± 0.14
26 | AHFYGVKLEGKVPMHKLFLEMLEA [ESRRA] | 2.46 ± 0.51 | 2.12 ± 0.034
27 | AHSAAVTASGDCYTFGSNQHGQLG [NEK8] | 3.81 ± 0.2 | 3.94 ± 0.35
28 | AILVKVQLDALPFFVITMIKIVLI [SLC29A1] | 3.23 ± 0.22 | 3.23 ± 0.37
29 | AIWDDTDSMYGECRTYIIHYYLMD [EFHC1] | 2.83 ± 0.52 | 2.67 ± 0.64
30 | AKVDSSGVIDLFGDAFGSSASEPQ [SNAP91] | 4.47 ± 0.23 | 4.57 ± 0.19
31 | AKVESMDQEIKFFRCLFEAEITQI [KRT71] | 2.01 ± 0.51 | 2.19 ± 0.15
32 | AKVYVGVKQEIAEMRIPALNAYMK [NCF4] | 2.13 ± 0.2 | 2.32 ± 0.29
33 | ALALANSDSVHIEDAEAVEQLREA [ESRRA] | 5.18 ± 0.3 | 5.26 ± 0.28
34 | ALHPERAMDNHSDSEEELAAFCPQ [RETREG3] | 5.42 ± 0.12 | 5.37 ± 0.24
35 | ALPPLRTRSKSDPVLHPSEERAAP [FAM189A2] | 5.64 ± 0.39 | 5.58 ± 0.2
36 | ALRPTAFSGCLNCSKVSELTERLK [EMID1] | 2.74 ± 0.37 | 2.97 ± 0.47
37 | ALSKHFIPYNAKFLGSTEVEQPKG [GULP1] | 3.19 ± 0.23 | 3.55 ± 0.2
38 | ALSTERELFAWGRGDSGRLGLGTR [NEK8] | 3.56 ± 0.17 | 3.46 ± 0.42
39 | ALVSAHSEWQRKLEAAEALLTLRN [DMRTC1] | 3.44 ± 0.24 | 3.57 ± 0.17
40 | AMLDEISLMDLAIEEGFNPVQASQ [NFE2L1] | 3.53 ± 0.39 | 3.66 ± 0.2
41 | ANSLLASPTGLSPYLRFGCLSCRL [CRY1] | 2.15 ± 0.27 | 2.37 ± 0.32
42 | APAVEVAPAGASYNPSFEDHQTLL [NOP53] | 4.84 ± 0.12 | 5.14 ± 0.25
43 | APDRLRASASCSHWRECLFYPALW [FBXO33] | 2.33 ± 0.43 | 2.28 ± 0.26
44 | APGDLSATEPATCFPSTQKPTEPS [FBF1] | 5.22 ± 0.22 | 5.343 ± 0.051
45 | APGPSRIADYLLLPLAEREHVSRA [TRIB1] | 3 ± 0.46 | 3.38 ± 0.77
46 | APGVLTNKRKTYTESYIARPDGDC [ZC2HC1A] | 4.27 ± 0.12 | 4.29 ± 0.3

Row | Sequence | protein stability index (treatment: DMSO) | protein stability index (treatment: MLN4924 1 uM, 8 h)
47 | AQEEEEEDQGRTRKRKQSGHSPAR [DDIT3] | 5.47 ± 0.31 | 5.7 ± 0.24
48 | AQQWRRARHNYNDLCPPIGRRAAT [GNAS] | 3.58 ± 0.3 | 3.6 ± 0.16
49 | ARAFAQRYLADLLPSVFGSLRDSG [RSPH3] | 2.29 ± 0.41 | 2.25 ± 0.28
50 | ASAIKKEELVARSETHAAGHSQEK [CHGB] | 5.4 ± 0.43 | 5.37 ± 0.31
51 | ASAQPLPAPEAAHTTGPTGSAPNS [TFE3] | 5.35 ± 0.18 | 5.46 ± 0.15
52 | ASCLQELFKAHFRGEVLPEEITEE [INTS3] | 3.71 ± 0.34 | 3.95 ± 0.12
53 | ASEPLPWDLRFRIIHETAVGMNFL [RIPK4] | 2.43 ± 0.15 | 2.33 ± 0.19
54 | ASFYACRLDKHLYVIGGRNETGYL [KLHL14] | 2.7 ± 0.54 | 2.54 ± 0.95
55 | ASSGSNSSASSEQGLLGRSPPTRP [SPRY1] | 5.19 ± 0.34 | 5.38 ± 0.2
56 | ASVSSHRFFGPNAEISQPPALSQL [TCF25] | 3.35 ± 0.46 | 3.29 ± 0.35
57 | ASYDKTVRAWDLETGKLLWKVRYD [WDR88] | 2.31 ± 0.4 | 2.14 ± 0.31
58 | ASYVVFRIIYMLLITIATFQIAAN [SLC19A2] | 3.09 ± 0.94 | 3.19 ± 0.18
59 | ATGDYLFEPHSGEDYSRDEDHIAH [SRPK2] | 5.23 ± 0.2 | 5.28 ± 0.27
60 | ATVWSSNVGRVHRVAKKLQSGLVW [ALDH8A1] | 2.81 ± 0.87 | 2.24 ± 0.96
61 | ATWMLEVCEEQKCEEEVFPLAMNY [CCND1] | 3.61 ± 0.16 | 3.77 ± 0.25
62 | AVGGRDDTTELSSAERYNPRTNQW [KLHL20] | 4.47 ± 0.21 | 4.5 ± 0.16
63 | AVRKLKFARHIKKSEGQKIPKVEL [GULP1] | 3.1 ± 0.091 | 3.13 ± 0.21
64 | AVSQPFRLSSSLQGSAVTLKTSKM [CDC14A] | 3.77 ± 0.3 | 3.71 ± 0.28
65 | AVWLIFFMLGLGTLLPWNFFMTAT [SLC29A1] | 3.09 ± 0.66 | 2.6 ± 0.12
66 | AYSLNKIHAYNLGTNAWEEIATKP [KLHDC10] | 2.56 ± 0.39 | 2.79 ± 0.57
67 | CFARKSQLTGHQRIHSGEEPHKCP [ZNF449] | 3.64 ± 0.1 | 4.01 ± 0.18
68 | CFKNWDGSPVSSWILLAESNSADD [OAS1] | 3.04 ± 0.24 | 3.38 ± 0.4
69 | CGERLSLGLSRAQPVQSKPQKASA [PDLIM7] | 3.85 ± 0.38 | 4.06 ± 0.33

Row | Sequence | protein stability index (treatment: DMSO) | protein stability index (treatment: MLN4924 1 uM, 8 h)
70 | CGTPEYLAPEVIQSKGHGRAVDWW [PRKX] | 2.72 ± 0.54 | 2.45 ± 0.15
71 | CHKYDRNIQVTGSAALFYLTNSEY [ZER1] | 2.28 ± 0.34 | 1.97 ± 0.23
72 | CIDIVIRHVAPIPSHYDVQDRFRI [MOSPD3] | 2.77 ± 0.61 | 2.93 ± 0.55
73 | CINIPGSYVCRCKQGYILNSDQTT [MATN2] | 2.43 ± 0.17 | 2.4 ± 0.35
74 | CKLQEQLEATVKKLEESKQLLKNN [SASS6] | 3.7 ± 0.15 | 3.47 ± 0.26
75 | CLPAGPRVYFLKGGYETFYSEYPE [DUSP5] | 2.29 ± 0.22 | 2.28 ± 0.31
76 | CMCTVGERLYVIGGNHFRGTSDYD [KLHL13] | 1.95 ± 0.17 | 2.38 ± 0.23
77 | CMFQEHKNHSTVTVEEAKAEKETE [TRIM29] | 5.52 ± 0.22 | 5.36 ± 0.24
78 | CMSIVTSMTAGVSEREANDALNAY [INTS3] | 3.41 ± 0.3 | 3.49 ± 0.21
79 | CPLTPGPGKALGPAATMAVELHYE [C2CD2L] | 3.67 ± 0.14 | 3.76 ± 0.28
80 | CPVWDIFDSDWYTSRNLIGGADII [RHOBTB3] | 3.26 ± 0.5 | 3.55 ± 0.26
81 | CRKWNQMMYSAELWRYRTITFSGR [FBXO39] | 2.41 ± 0.28 | 2.15 ± 0.37
82 | CRLGYGCGYEGCRYGCGHRGCGDG [KRTAP19-2] | 3.01 ± 0.46 | 3.11 ± 0.41
83 | CRVPNSGKDEIEAAVKAAREAFPS [ALDH8A1] | 4.65 ± 0.27 | 4.54 ± 0.36
84 | CSELNKLCQHFEAVHSGTPVTNNL [SPACA9] | 2.95 ± 0.47 | 2.97 ± 0.24
85 | CSLYENDCIFDKFECAWNGSDSVI [PPP2R2C] | 2.21 ± 0.17 | 2.17 ± 0.15
86 | CSNSQEHGAHKHHPIEEAAEEHRE [TRIM43] | 5.51 ± 0.34 | 5.37 ± 0.27
87 | CTGTEAHISSCKLGPQVSLDPMKN [LOXL2] | 3.5 ± 0.29 | 3.81 ± 0.11
88 | CVPVFANMSREPFSTRALVLSILH [SOAT2] | 2.22 ± 0.21 | 2 ± 0.22
89 | CYDPKGDQWNILQTPILEGRSGPG [KLHL14] | 2.53 ± 0.31 | 2.77 ± 0.43
